The values below come from paper PMC12412652 (2025).

To fix the notation:
B1: αBAK2 (designed binder)
chain: GADPKKVLDKADDQMENVVVTLKQELEELAKERRKLDLTQSEKIELKLRYIVAHLAAIGDIEEAIREAKEEADKLKKAGLVNSQQFAEFKRRLEELHKEADRKRRDYAEEFRNKLEYG
modifications: biotinylated for BLI (Avi tag). Limits not printed in the text (constructs as in cited earlier work); the soluble form lacking the C-terminal tail is taken by convention. Any solubility mutations are not stated
B2: BAK-CDP02 (BAK-targeting computationally designed protein 02 of 11) (designed binder)
chain: GADPKKVLDKAKDQAENVVRKLKQILEELYKEARKLDLTQDEKIELILRYIAAMLAAIGDILEAIRQAKEEADKLKKAGLVNSQQLDELKRRLEELRKEAARKARDYAEEFRNKLEYG
modifications: biotinylated for BLI (Avi tag). Limits not printed in the text (constructs as in cited earlier work); the soluble form lacking the C-terminal tail is taken by convention. Any solubility mutations are not stated
B3: αBAX1 (designed binder)
chain: GADPKKVLDKARDQAENRVRELAQKLEELYKEARKLDLTQEERRKLEKRYKAAMEEAIKDIHEAIEQAKEEADKLKDAGLVNEQQLKELKQRLNELAIAAAFRASGDTIEFRRKLQYG
modifications: biotinylated for BLI (Avi tag). Limits not given; the conventional BCL-2-fold core 172-327 is taken
B4: αBAX2 (designed binder)
chain: GADPKKVLDKARDQAENRVRELRQKLTELYKEARKLDLTQEERRKLIKRYKAAMNEAIKDIHEAIEQAKEEADKLKDAGLVNEQQLKELKQRLNEKALAAAFRASGDTWHARRKLQYG
modifications: biotinylated for BLI (Avi tag). Limits not given; the conventional BCL-2-fold core 172-327 is taken
B5: BAX-CDP01 (BAX-targeting computationally designed protein 01) (designed binder)
chain: GADPKKVLDKARDQAENRVRELAQKLEELYKEARKLDLTQEERRKLEKRYKAAMEEAIKDIREAIRQAKQEADKLKKAGLVNSQQLKELKQRLNELAIAAALRAIGDAIEFRRKLQYG
modifications: biotinylated for BLI (Avi tag). Limits not given; the conventional BCL-2-fold core 172-327 is taken
B6: αBAK2 (designed binder)
chain: GADPKKVLDKADDQMENVVVTLKQELEELAKERRKLDLTQSEKIELKLRYIVAHLAAIGDIEEAIREAKEEADKLKKAGLVNSQQFAEFKRRLEELHKEADRKRRDYAEEFRNKLEYG
modifications: biotinylated for BLI (Avi tag). Limits not given; the conventional BCL-2-fold core 172-327 is taken
B7: αBAK1 (designed binder)
chain: GADPKKVLDKAKDQMENVVRKLKQILEELAKEARKLDLTQDEKIELILRYIVAHLAAIGDIEEAIREAKEEADKLKKAGLVNSQQLDEFKRRLEELHKEADRKRRDYAEEFRNKLEYG
modifications: biotinylated for BLI (Avi tag). Limits not given; the conventional BCL-2-fold core 172-327 is taken
B8: BAK-CDP02 (BAK-targeting computationally designed protein 02 of 11) (designed binder)
chain: GADPKKVLDKAKDQAENVVRKLKQILEELYKEARKLDLTQDEKIELILRYIAAMLAAIGDILEAIRQAKEEADKLKKAGLVNSQQLDELKRRLEELRKEAARKARDYAEEFRNKLEYG
modifications: biotinylated for BLI (Avi tag). Limits not given; the conventional BCL-2-fold core 172-327 is taken
B9: αBAX1 (designed binder)
chain: GADPKKVLDKARDQAENRVRELAQKLEELYKEARKLDLTQEERRKLEKRYKAAMEEAIKDIHEAIEQAKEEADKLKDAGLVNEQQLKELKQRLNELAIAAAFRASGDTIEFRRKLQYG
modifications: biotinylated for BLI (Avi tag). Limits not given; the soluble form lacking the transmembrane segment (183-200) is taken by convention
B10: BAX-CDP01 (BAX-targeting computationally designed protein 01) (designed binder)
chain: GADPKKVLDKARDQAENRVRELAQKLEELYKEARKLDLTQEERRKLEKRYKAAMEEAIKDIREAIRQAKQEADKLKKAGLVNSQQLKELKQRLNELAIAAALRAIGDAIEFRRKLQYG
modifications: biotinylated for BLI (Avi tag). Limits not given; the soluble form lacking the transmembrane segment (183-200) is taken by convention
B11: αBAX2 (designed binder)
chain: GADPKKVLDKARDQAENRVRELRQKLTELYKEARKLDLTQEERRKLIKRYKAAMNEAIKDIHEAIEQAKEEADKLKDAGLVNEQQLKELKQRLNEKALAAAFRASGDTWHARRKLQYG
modifications: biotinylated for BLI (Avi tag). Limits not given; the soluble form lacking the transmembrane segment (183-200) is taken by convention
B12: αBAK2 (designed binder)
chain: GADPKKVLDKADDQMENVVVTLKQELEELAKERRKLDLTQSEKIELKLRYIVAHLAAIGDIEEAIREAKEEADKLKKAGLVNSQQFAEFKRRLEELHKEADRKRRDYAEEFRNKLEYG
modifications: biotinylated for BLI (Avi tag). Limits not given; the soluble form lacking the transmembrane segment (183-200) is taken by convention
B13: αBAK1 (designed binder)
chain: GADPKKVLDKAKDQMENVVRKLKQILEELAKEARKLDLTQDEKIELILRYIVAHLAAIGDIEEAIREAKEEADKLKKAGLVNSQQLDEFKRRLEELHKEADRKRRDYAEEFRNKLEYG
modifications: biotinylated for BLI (Avi tag). Limits not given; the soluble form lacking the transmembrane segment (183-200) is taken by convention
B14: BAK-CDP02 (BAK-targeting computationally designed protein 02 of 11) (designed binder)
chain: GADPKKVLDKAKDQAENVVRKLKQILEELYKEARKLDLTQDEKIELILRYIAAMLAAIGDILEAIRQAKEEADKLKKAGLVNSQQLDELKRRLEELRKEAARKARDYAEEFRNKLEYG
modifications: biotinylated for BLI (Avi tag). Limits not given; the soluble form lacking the transmembrane segment (183-200) is taken by convention

One assay addresses T1, BCL-W (Homo sapiens).
T1 chain: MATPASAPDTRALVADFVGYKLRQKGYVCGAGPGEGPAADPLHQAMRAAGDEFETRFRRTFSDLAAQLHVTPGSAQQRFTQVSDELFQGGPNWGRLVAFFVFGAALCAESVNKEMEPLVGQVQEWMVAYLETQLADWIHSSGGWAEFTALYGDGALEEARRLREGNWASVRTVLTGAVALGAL
As to the kind of experiment: BLI. In general terms: BLI is a label-free optical method that tracks binding on a fibre tip over time.
One may read the Kd as the equilibrium constant for the complex coming apart. As to B1, binding was characterised by a dissociation constant (Kd) of 5000 nM.

B2 yielded a dissociation constant (Kd) of 800 nM.

The target of a further assay is T2, MCL-1 (Homo sapiens).
T2 chain: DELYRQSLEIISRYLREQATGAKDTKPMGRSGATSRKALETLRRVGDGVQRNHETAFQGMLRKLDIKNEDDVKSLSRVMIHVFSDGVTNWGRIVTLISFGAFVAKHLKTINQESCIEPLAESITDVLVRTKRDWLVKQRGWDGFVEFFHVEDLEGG
As to the kind of experiment: BLI.
In the case of B3, the Kd stood at 600 nM.

As to B4, the Kd was determined as 18000 nM.

On to B5, for which binding was characterised by a dissociation constant (Kd) of 10 nM.

Consider B6, for which binding was characterised by a dissociation constant (Kd) of 310 nM.

B7 had a Kd of 500 nM.

Turning to B8, the equilibrium dissociation constant (Kd) was determined as 5.4 nM.

Another assay deals with T3, BCL-B (Homo sapiens).
T3 chain: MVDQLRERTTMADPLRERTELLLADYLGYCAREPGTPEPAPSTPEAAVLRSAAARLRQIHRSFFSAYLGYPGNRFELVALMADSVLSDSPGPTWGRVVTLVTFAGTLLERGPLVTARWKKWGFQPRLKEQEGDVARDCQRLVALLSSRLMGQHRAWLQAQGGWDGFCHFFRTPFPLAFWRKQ
As to the kind of experiment: BLI.
The molecule B9 gave a dissociation constant Kd greater than 20000 nM.

B10 came in with a Kd of 2000 nM.

Turning to B11, the affinity, expressed as Kd, was 80000 nM.

Take B12: the Kd turned out to be 3000 nM.

In the case of B13, the Kd stood at 12000 nM.

B14 gave an equilibrium dissociation constant (Kd) of 200 nM.
